Test: Relaxivity measurement of BSA conjugates in aqueous solution and in plasma
Assay type: physicochemical
Conditions: relaxivity per mol of gadolinium, calculated from the measured values, +37° C., 20 MHz
Description: In this example, the relaxivities of the conjugates from Examples 30-38 were compared with the relaxivities of two comparison substances. As comparison substances, Gd-DTPA (1) with the formula: [drawing 16]
and Gd-GlyMeDOTA (2) with the formula: [drawing 17]
which were reacted in each case with bovine serum albumin (BSA), were used.
The measurements were made in each case in aqueous solution and in plasma at +37° C. and a frequency of 20 MHz. The results are summarized in Table 2 below, whereby the indicated relaxivities per mol of gadolinium were calculated from the measured values: […]

Gd-GlyMeDOTA [Vergleichssubstanz 2, reference compound]
R1 (H2O) (aqueous solution): 18.3 L/mmol/s | R1 (Plasma) (plasma): 20.8 L/mmol/s

— patent US20030206865A1, “Conjugates of macrocyclic metal complexes with biomolecules and their use for the production of agents for NMR diagnosis and radiodiagnosis as well as radiotherapy” (Schering AG, priority 2001, published 2003)
